Results as given in publication doi:10.1101/2020.02.16.951632.
Values joined by “and” are separate entries in the source; they are usually repeats but may differ in a detail not shown here. Identical values can stand only once.

Assays:
[1] = molecular target: chloride intracellular channel 1 construct CLIC1C24 (UniProt O00299); assay: FRET or BRET
[2] = molecular target: chloride intracellular channel 1 construct CLIC1C24 (UniProt O00299); assay: two-colour single-molecule TIRF colocalisation with photobleaching step counting

- initial FRET efficiency (E) of the complexes [1]: 0.8 to 1
- proportion of CLIC1C24 colocalised with αBc (C176) (maximum, after 4 hr) [2]: 50%
- αBc subunits per complex (0.25 – 0.5 hr) [2]: 1 subunits and 3 subunits
- αBc subunits per complex (complexes whose abundance increased after 1 hr) [2]: > 6 subunits
- αBc subunits per complex (more complexes at molar ratio 2:1 to 4:1) [2]: > 10 subunits
- stoichiometry N ([2]; scale: αBc per CLIC1): 1
Substance: human αB-crystallin mutant αBc_(C176), fluorescently labelled (natural protein)
